Measurements: patent US20240376218A1 (published 2024)

Assays:
murine CCR8 [1] = target: T1, murine CCR8 (mouse, UniProt P56484 1-353); experiment: cell-based or functional assay
T1 sequence: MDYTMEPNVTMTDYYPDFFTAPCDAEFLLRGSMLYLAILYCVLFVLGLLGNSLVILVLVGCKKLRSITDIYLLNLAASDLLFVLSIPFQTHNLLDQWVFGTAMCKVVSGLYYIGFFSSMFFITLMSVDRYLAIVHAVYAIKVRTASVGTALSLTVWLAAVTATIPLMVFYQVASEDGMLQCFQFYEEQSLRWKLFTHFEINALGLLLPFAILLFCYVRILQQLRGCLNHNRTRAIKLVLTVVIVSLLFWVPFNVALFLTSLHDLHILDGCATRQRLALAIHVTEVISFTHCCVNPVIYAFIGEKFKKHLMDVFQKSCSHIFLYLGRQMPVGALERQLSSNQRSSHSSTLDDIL

murine CCR8 [2] = target: T2, murine CCR8 (mouse, UniProt P56484 1-353); experiment: cell-based or functional assay; remark: listed apart in the source
T2 sequence: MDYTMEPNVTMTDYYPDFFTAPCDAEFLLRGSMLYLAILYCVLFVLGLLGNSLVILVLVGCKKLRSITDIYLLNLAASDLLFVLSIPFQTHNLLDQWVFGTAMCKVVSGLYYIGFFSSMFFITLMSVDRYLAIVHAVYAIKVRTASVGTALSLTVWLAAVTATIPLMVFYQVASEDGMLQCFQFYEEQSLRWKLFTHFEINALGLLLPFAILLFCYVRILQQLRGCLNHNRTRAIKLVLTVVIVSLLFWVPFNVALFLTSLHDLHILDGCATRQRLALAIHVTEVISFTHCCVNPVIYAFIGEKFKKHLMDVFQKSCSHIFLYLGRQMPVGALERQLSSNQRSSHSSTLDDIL

murine CCR8 [3] = target: T2, murine CCR8; experiment: cell-based or functional assay; remark: listed apart in the source
human CCR8 [4] = target: T3, human CCR8 (human, UniProt P51685 1-355); experiment: cell-based or functional assay
human CCR8 [5] = target: T3, human CCR8; experiment: cell-based or functional assay; remark: listed apart in the source
human CCR8 [6] = target: T4, human CCR8 (human, UniProt P51685 1-355); experiment: FACS, HuT78 cells endogenously expressing human CCR8
T4 construct: also called hCCR8; P51685_CCR8_HUMAN

[7] = target: T5, FcRn immobilized on FcRn column (Roche, Order No. 8128057001); experiment: FcRn affinity chromatography, linear pH gradient
T5 construct: bought prepacked column; also called immobilized FcRn
T5 sequence (P55899 24-297, chain 1 of 2): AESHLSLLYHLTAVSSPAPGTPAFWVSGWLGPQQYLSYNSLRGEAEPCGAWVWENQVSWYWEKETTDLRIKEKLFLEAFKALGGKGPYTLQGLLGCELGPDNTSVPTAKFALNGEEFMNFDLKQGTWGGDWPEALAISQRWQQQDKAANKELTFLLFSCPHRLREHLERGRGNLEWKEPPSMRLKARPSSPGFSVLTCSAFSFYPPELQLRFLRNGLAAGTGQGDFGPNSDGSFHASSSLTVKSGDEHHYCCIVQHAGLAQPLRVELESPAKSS
T5 sequence (P61769 21-119, chain 2 of 2, further chain): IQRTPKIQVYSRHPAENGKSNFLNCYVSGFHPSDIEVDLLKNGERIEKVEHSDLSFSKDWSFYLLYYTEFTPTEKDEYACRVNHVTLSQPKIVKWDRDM
Protocol: 30 μL of each antibody (1 mg/mL in equilibration buffer) was applied to the column.

B1: TPP-15285 (antibody, mouse IgG2a)
heavy: EVQLLESGGGLVQPGGSLRLSCAASGFTFSDYGVHWVRQAPGKGLEWVSGVSWNGSRTHYADSVKGRFTISRDNSKNTLYLQMNSLRAEDTAVYYCVTRGAWGQGTLVTVSSAKTTAPSVYPLAPVCGDTTGSSVTLGCLVKGYFPEPVTLTWNSGSLSSGVHTFPAVLQSDLYTLSSSVTVTSSTWPSQSITCNVAHPASSTKVDKKIEPRGPTIKPCPPCKCPAPNLLGGPSVFIFPPKIKDVLMISLSPIVTCVVVDVSEDDPDVQISWFVNNVEVHTAQTQTHREDYNSTLRVVSALPIQHQDWMSGKEFKCKVNNKDLPAPIERTISKPKGSVRAPQVYVLPPPEEEMTKKQVTLTCMVTDFMPEDIYVEWTNNGKTELNYKNTEPVLDSDGSYFMYSKLRVEKKNWVERNSYSCSVVHEGLHNHHTTKSFSRTPGK
light: QSVLTQPPSASGTPGQRVTISCSGSSFNIGSHFVYWYQQLPGTAPKLLIYKNNQRPSGVPDRFSGSKSGTSASLAISGLRSEDEADYYCAAWDDSLNGPVFGGGTKLTVLGQPKSSPSVTLFPPSSEELETNKATLVCTITDFYPGVVTVDWKVDGTPVTQGMETTQPSKQSNNKYMASSYLTLTARAWERHSSYSCQVTHEGHTVEKSLSRADCS
ADCC EC50 (pM); murine CCR8 expressing HEK293 target cells, primary murine NK effector cells (murine CCR8 [1]): 111 pM

B2: TPP-15285 (antibody, mouse IgG2a)
heavy: EVQLLESGGGLVQPGGSLRLSCAASGFTFSDYGVHWVRQAPGKGLEWVSGVSWNGSRTHYADSVKGRFTISRDNSKNTLYLQMNSLRAEDTAVYYCVTRGAWGQGTLVTVSSAKTTAPSVYPLAPVCGDTTGSSVTLGCLVKGYFPEPVTLTWNSGSLSSGVHTFPAVLQSDLYTLSSSVTVTSSTWPSQSITCNVAHPASSTKVDKKIEPRGPTIKPCPPCKCPAPNLLGGPSVFIFPPKIKDVLMISLSPIVTCVVVDVSEDDPDVQISWFVNNVEVHTAQTQTHREDYNSTLRVVSALPIQHQDWMSGKEFKCKVNNKDLPAPIERTISKPKGSVRAPQVYVLPPPEEEMTKKQVTLTCMVTDFMPEDIYVEWTNNGKTELNYKNTEPVLDSDGSYFMYSKLRVEKKNWVERNSYSCSVVHEGLHNHHTTKSFSRTPGK
light: QSVLTQPPSASGTPGQRVTISCSGSSFNIGSHFVYWYQQLPGTAPKLLIYKNNQRPSGVPDRFSGSKSGTSASLAISGLRSEDEADYYCAAWDDSLNGPVFGGGTKLTVLGQPKSSPSVTLFPPSSEELETNKATLVCTITDFYPGVVTVDWKVDGTPVTQGMETTQPSKQSNNKYMASSYLTLTARAWERHSSYSCQVTHEGHTVEKSLSRADCS
ADCP EC50 (pM); murine CCR8 expressing HEK293 target cells, murine bone marrow derived M2 macrophages (murine CCR8 [2]): 402 pM

B3: TPP-14095 (antibody, human IgG1, lambda, V domains shown)
VH: EVQLLESGGGLVQPGGSLRLSCAASGFTFSSYGMHWVRQAPGKGLEWVSAISGSGGSTYYADSVKGRFTISRDNSKNTLYLQMNSLRAEDTAVYYCARGRQLGSWGQGTLVTVSS
VL: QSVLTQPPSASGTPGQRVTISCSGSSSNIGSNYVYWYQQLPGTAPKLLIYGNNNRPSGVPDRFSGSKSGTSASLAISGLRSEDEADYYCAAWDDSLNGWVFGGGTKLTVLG
Ca flux assay IC50 (nM), block of signaling induced by CCL1 at 40 ng/ml; CHO cells expressing murine CCR8 (murine CCR8 [3]): 1.65 nM

B4: TPP-20955 (antibody, human IgG1, lambda, V domains shown)
VH: EVQLLESGGGLVQPGGSLRLSCAASGFTFSSYGMHWVRQAPGKGLEWVSAIKWGGGSHGYADSVKGRFTISRDNSKNTLYLQMNSLRAEDTAVYYCARGHHKGYDGRFFDYWGQGTLVTVSS
VL: QSVLTQPPSVSGAPGQRVTISCTGSSSNIGAGYNVHWYQQLPGTAPKLLIYTNNRRPSGVPDRFSGSKSGTSASLAISGLRSEDEADYYCAAWDASLSGWVFGGGTKLTVLG
Ca flux assay IC50 (nM), block of signaling induced by CCL1 at 60 ng/ml; CHO cells expressing human CCR8 (human CCR8 [4]): 0.52 nM | Ca flux assay Span ratio (from max to min), block of signaling induced by CCL1 at 60 ng/ml; CHO cells expressing human CCR8 (human CCR8 [5]): ~11400

B5: TPP-27495 (antibody, human IgG1, lambda)
heavy: EVQLLESGGGLVQPGGSLRLSCAASGFTFSSYGMHWVRQAPGKGLEWVSAINWNGGSTGYADSVKGRFTISRDNSKNTLYLQMNSLRAEDTAVYYCARGHHSGYDGRFFDYWGQGTLVTVSSASTKGPSVFPLAPSSKSTSGGTAALGCLVKDYFPEPVTVSWNSGALTSGVHTFPAVLQSSGLYSLSSVVTVPSSSLGTQTYICNVNHKPSNTKVDKKVEPKSCDKTHTCPPCPAPELLGGPSVFLFPPKPKDTLYITREPEVTCVVVDVSHEDPEVKFNWYVDGVEVHNAKTKPREEQYNSTYRVVSVLTVLHQDWLNGKEYKCKVSNKALPAPIEKTISKAKGQPREPQVYTLPPSRDELTKNQVSLTCLVKGFYPSDIAVEWESNGQPENNYKTTPPVLDSDGSFFLYSKLTVDKSRWQQGNVFSCSVMHEALHNHYTQKSLSLSPGK
light: not shown
notes: 70% afucosylated
EC50 (human CCR8 [6]): 3.25 nM

B6: TPP-27495 (antibody, human IgG1, lambda)
heavy: EVQLLESGGGLVQPGGSLRLSCAASGFTFSSYGMHWVRQAPGKGLEWVSAINWNGGSTGYADSVKGRFTISRDNSKNTLYLQMNSLRAEDTAVYYCARGHHSGYDGRFFDYWGQGTLVTVSSASTKGPSVFPLAPSSKSTSGGTAALGCLVKDYFPEPVTVSWNSGALTSGVHTFPAVLQSSGLYSLSSVVTVPSSSLGTQTYICNVNHKPSNTKVDKKVEPKSCDKTHTCPPCPAPELLGGPSVFLFPPKPKDTLYITREPEVTCVVVDVSHEDPEVKFNWYVDGVEVHNAKTKPREEQYNSTYRVVSVLTVLHQDWLNGKEYKCKVSNKALPAPIEKTISKAKGQPREPQVYTLPPSRDELTKNQVSLTCLVKGFYPSDIAVEWESNGQPENNYKTTPPVLDSDGSFFLYSKLTVDKSRWQQGNVFSCSVMHEALHNHYTQKSLSLSPGK
light: not shown
modifications: 70% afucosylated
pH at Elution [7]: 7.88 pH
